# Experimental data taken from patent US20230272051A1 (CENTIVAX, published 2023).
# Changes are numbered by the printed parent chain.
# B1: COVID19_P01_H06 (scFv, V domains shown)
# VH: QVQLVQSGAEVKKPGSSVKVSCKASGYTFTSYYMHWVRQAPGQGLEWMGLIDPSGGTTSYAQKFQGRVTITADESTSTAYMELSSLRSEDTAVYYCVWDTVMGGMDVWGQGTLVTVSS
# VL: SYVLTQPPSVSVAPGKTAARITCGGNNIGSKSVHWYQQKPGQAPVLVIYKDGERPSGIPERFSGSNSRNTATLTISRVEAGDEADYYCQVWDSSSLYVFGGGTKLTVLA
# B2: COVID19_P01_H05 (scFv, V domains shown)
# VH: QVQLVQSGAEVKKPGSSVKVSCKASGGTFSNFALTWVRQAPGQGLEWMGLINPSGGSTSYAQRFQGRVTITADESTSTAYMELSSLRSEDTAVYYCARDSVMGGMDVWGQGTLVTVSS
# VL: SSYVLTQPPSVSVAPGKTARITCGGNNIGSKSVHWYQQKPGQAPVLVIYYDSDRPSGIPERFSGSNSGNTATLTISRVEAGDEADYYCQVWASSSDYVFGGGTKLTVLA
# B3: COVID19_P13_H07 (scFv, V domains shown)
# VH: QVQLVQSGAEVKKPGSSVKVSCKASGYTFINYDINWVRQAPGQGLEWMGGITPIFGTAKYAQKFQGRVTITADESTSTAYMELSSLRSEDTAVYYCARDTVMGGMDVWGQGTLVTVSS
# VL: B2 VL with A92D
# B4: COVID19_P01_H07 (scFv, V domains shown)
# VH: QVQLVQSGAEVKKPGSSVKVSCKASGYSFNNYDLHWVRQAPGQGLEWMGGIIPIFDTANYAQKFQGRVTITADESTSTAYMELSSLRSEDTAVYYCALETVMGGMVKWGQGTLVTVSS
# VL: B2 VL with V78I, A92D, S95G
# B5: COVID19_P02_A04 (scFv, V domains shown)
# VH: B1 VH with T28A, L50V, G55E, T57S, Y60N, Q62R, W98S
# VL: B2 VL with I48V, Y50D, A92D, D96L
# B6: COVID19_P14_F05 (scFv, V domains shown)
# VH: QVQLVQSGAEVKKPGSSVKVSCKASGNTFSMFAINWVRQAPGQGLEWVGVINPIGSTTTYAQKFQGRVTITADESTSTAYMELSSLRSEDTAVYYCARDTVMGGMDVWGQGTLVTVSS
# VL: B2 VL with A92V
# B7: COVID19_P14_H10 (scFv, V domains shown)
# VH: QVQLVQSGAEVKKPGSSVKVSCKASGGSFSRFPISWVRQAPGQGLEWMGGIIPIFGTANYAQRFQGRVTITADESTSTAYMELSSLRSEDTAVYYCALETVMGGLQVWGQGTLVTVSS
# VL: B2 VL with A92D
# B8: COVID19_P14_B05 (scFv, V domains shown)
# VH: B2 VH with N31S, F32Y, A33T, L34I, T35S, L50I, R63K, S100T, D106G
# VL: B2 VL with A92D, D96F
# B9: COVID19_P14_F07 (scFv, V domains shown)
# VH: QVQLVQSGAEVKKPGSSVKVSCKASGGTFSSYAISWMRQAPGQGLEWMGWINPNSGGTNYAQKFQGRVTITADESTSTAYMELSNLRSEDTAVYYCARDTYWGGMDVWGQGTLVTVSS
# VL: B2 VL with A92D, D96F
# B10: COVID19_P14_F06 (scFv, V domains shown)
# VH: B2 VH with N31S, L34I, T35I, G49A, G55S, S57T, R63K, D99E, S100T
# VL: B2 VL with A92D, D96H
# B11: COVID19_P02_A11 (scFv, V domains shown)
# VH: B6 VH with N27S, I54R, T57S
# VL: B2 VL with A92D, S93R
# B12: COVID19_P01_E11 (scFv, V domains shown)
# VH: QVQLVQSGAEVKKPGSSVKVSCKASGGTFSNYTITWVRQAPGQGLEWLGWISAYNGNTDYAQKLQGRVTITADESTSTAYMELSSLRSEDTAVYYCARDALMGGMDVWGQGTLVTVSS
# VL: B2 VL with A92D, S94R
# Molecular target: SARS-CoV-2 spike protein (on pseudovirus) (SARS-CoV-2, UniProt P0DTC2 14-1273)
# Assay: cell-based or functional assay
row,Binder,IC50 [µg/mL] pseudotyped lenti neutralization [µg/mL]
1,B1,2.1
2,B2,35
3,B3,15
4,B4,6.5

# Molecular target: T1, SARS-CoV-2 Receptor Binding Domain (RBD) protein (SARS-CoV-2, UniProt P0DTC2 319-541)
# T1 construct: also called Sars-Cov-2 (COV2)
# Assay: SPR (Carterra LSA); scFv captured by anti-V5, RBD as analyte
Binder,Kd [nM],koff [s⁻¹],kon [M⁻¹ s⁻¹]
B1,1.31,0.000621,474000
B2,1.11,0.000468,423000
B5,41.4,0.0187,451000
B6,21.7,0.00152,69900
B7,28.3,0.01,355000
B8,48,0.0141,294000
B9,17,0.00245,144000
B10,48.3,0.0024,49700
B11,45.1,0.0147,326000
B12,5.87,0.000586,99900
B3,1.92,0.00031,160000
B4,0.81,0.000401,496000

# Molecular target: T1, SARS-CoV-2 Receptor Binding Domain …
# Assay: SPR (Carterra LSA)
row,Binder,Kd [nM]
1,B2,< 50
2,B5,< 50
3,B6,< 50
4,B7,< 50
5,B8,< 50
6,B9,< 50
7,B10,< 50
8,B11,< 50
9,B12,< 50
10,B3,< 50
